The results in this text go back to US12127562B2, “Methods and compositions that increase pesticidal activity for FR901228” (PRO FARM GROUP, INC., priority 2020, dated 2024).

The experiment relates to Beet army worm (Spodoptera exigua). Put plainly: Beet army worm diet overlay assay (insecticidal activity). The format is in vivo. To be noted: for LC50: Spodoptera exigua, MW 540 concentration 50 μg/mL, protein concentration 0 mg/mL; for LC50 (μg/mL MW 540): Table 4, heated, MW 540 concentration 0 μg/mL, protein concentration 5 mg/mL; for insecticidal activity (in words): text summary, compared to MW 540 alone. The text has this:
The present inventors evaluated whether these two proteins can form conjugates with MW 540 and whether the conjugate has the same insecticidal activity as MW 540 alone. One skilled in the art knows that protein purification often uses polyhistidine-tags to assist with the concentration and removal of desired proteins from cellular material. The two protein sequences were cloned into an expression vector (pET26b(+)) and over-expressed in E. coli BL21 cells with a His tag added to the C-terminus of the sequence. In other words, His-tagged HtpG and DnaK from B. rinojensis A396 were overexpressed in E. coli and were purified by immobilized metal ion affinity chromatography.
After mixing MW 540 with HtpG and/or DnaK, heat was applied to the mixture to from disulfide bond conjugates and the end-product was evaluated and its insecticidal activity determined.
Table 1's numbers are expressed as protein concentrations as μg/mL. Subsequently, the insecticidal activity of the end products was evaluated using Beet army worm diet overlay assay known in the art.

≈ marks a conversion by molar mass, not a printed value. Entries after “also recorded” stand apart in the source; their conditions may differ. Where two headings read alike, the source gives them in different places.

For the molecule `C/C=C1\NC(=O)[C@H]2CSSCC/C=C/[C@H](CC(=O)N[C@H](C(C)C)C(=O)N2)OC(=O)[C@H](C(C)C)NC1=O` [MW 540, romidepsin, reference compound], the LC50 was determined as 0.27 µg/mL (≈ 0.499 µM) (read-out: LC50 (μg/mL MW 540), Table 2); 0.35 µg/mL (≈ 0.647 µM) (read-out: LC50 (μg/mL MW 540), Table 3); 0.43 µg/mL (≈ 0.795 µM) (read-out: LC50 (μg/mL MW 540), Table 4, unheated).

B1: HtpG: Chaperone protein HtpG from Burkholderia rinojensis A396 (SEQ ID No. 1), His-tagged, overexpressed in E. coli (protein)
chain: MTQQTMSFQAEVKQLLHLMIHSLYSNKEIFLRELVSNASDAADKLRFEALENGALYENDPNLRIRIGFDPAARTLTIDDNGIGMSRDEAIANLGTIARSGTKEFFSKLSGDQQKDAALIGQFGVGFYSGFIVADRITVETRRAGLPASEGVRWESGGEGDFSIDAIERAARGTTITLHLREGEDELLSAHRLKSIVRKYSDHVALPILMQQEAWDAEKGEMVAKDEDETVNQASALWTRAKSEITDEQYQQFYQHLAHDHQNPLAWTHNRVEGRSEYTQLLYVPSHAPFDLWNRDYRGGLKLYVKRVFIMDDAEQLLPQYLRFVKGVVDSADLPLNVSREILQESRDVKAIREGVTKRALSMLEELANAEDDAGKEQYRTFWSAFGQVLKEGVGEDQANRERVAKLVRFASTHGGTDAQDVSLADYVARMKPEQTRIYYVTADTWQAATHSPHLEVFRKKGVEVLLLTDRVDEWMLSYLQEFDGKPLASVARGDLDLGALDDAEKKAQEETGEAFKPLVEKMKEALGDKAKDVRVTFRLTDSPSCLVADDHDMSGYLQRMLKAAGQSGPAMQPILEVNPEHPLVKQLQADSPEFGDWCHLLFDQALLAEGGALEDPASFVKRTNTLLLSRAA
modifications: His tag; Burkholderia rinojensis A396
B1: the “LC50 (μg/mL MW 540)” value is recorded as “No Activity” and the “insecticidal activity (in words)” value is given as “did not show insecticidal activity”. Further, under “listed as HtPG”, the “insecticidal activity (in words)” value is reported as “does not exhibit insecticidal activity”.

B2: DnaK: Chaperone protein DnaK from Burkholderia rinojensis A396 (SEQ ID No. 2), His-tagged, overexpressed in E. coli (protein)
chain: MGKIIGIDLGTTNSCVAVMEGNQVKVIENSEGARTTPSIIAYMDDNEVLVGAPAKRQSVTNPRNTLFAVKRLIGRRFEEKEVQKDIGLMPYAIIKADNGDAWVEAHGDKLAPPQVSAEVLRKMKKTAEDYLGEPVTEAVITVPAYFNDSQRQATKDAGRIAGLEVKRIINEPTAAALAFGLDKAEKGDRKIAVYDLGGGTFDVSIIEIADVDGEMQFEVLSTNGDTFLGGEDFDQRIIDYIIGEFKKEQGVDLSKDVLALQRLKEAAEKAKIELSSGQQTEINLPYITADASGPKHLNLKITRAKLEALVEELVERTIEPCRIAIKDAGVKVSDIDDVILVGGQTRMPKVLEKVKEFFGKDPRRDVNPDEAVAVGAAIQGQVLSGDRKDVLLLDVTPLSLGIETLGGVMTKMINKNTTIPTKHAQVYSTADDNQGAVTIKVFQGEREMAAGNKLLGEFNLEGIPPAPRGVPQIEVTFDIDANGILHVGAKDKATGKENKITIKANSGLSEAEIDQMIKDAEANAAEDHKLRELADSRNQGDALVHSTKKAVAEYGDKLDAGEKDKIEAALKELEDVLKNTSADKAAIDAKIEALSTASQKLGEKMYADMQAQQAGAAGAAGAAEGAAHGGAQQADDVVDADFKEVKKD
modifications: His tag; Burkholderia rinojensis A396
Consider B2, for which the “LC50 (μg/mL MW 540)” value is recorded as “No Activity” and the “insecticidal activity (in words)” value is “does not exhibit insecticidal activity; also recorded: did not show insecticidal activity”.
